Results as given in publication PMC12186490, “Environmental pH controls antimicrobial production by human probiotic Streptococcus salivarius” (Journal of Bacteriology, 2025).

Legend:
[1] = molecular target: NRPS regulator NrpR (amino acids 1-285), recombinant, untagged (Streptococcus salivarius K12); test: SEC; Superdex 200 10/300 GL; 20 mM Tris-HCl pH 8.5, 200 mM NaCl, 1 mM TCEP, 5% glycerol; 1 mg/mL NrpR, room temperature; mass standards
[2] = molecular target: fluorescein-labeled synthetic NRPS-inducing peptide (NIP) (Streptococcus salivarius K12); test: fluorescence polarisation; 1 nM fluorescein-labeled NIP titrated with purified NrpR; 20 mM potassium phosphate, 75 mM NaCl, 2% DMSO, 1 mM EDTA, 0.0005% Tween 20; binding buffer adjusted to near neutral pH (pH 6.5 to 7.5) or pH 5.0
[3] = molecular target: NRPS regulator NrpR (amino acids 1-285), recombinant, untagged (Streptococcus salivarius K12)

| Substance | stoichiometry N [1] | fold decrease in affinity against pH 5.5 [2] [fold] | sarD transcript level (qRT-PCR) in the nip* mutant with 100 nM synthetic NIP at pH 5.5 or 6.0, against the unsupplemented mutant; no significant induction at pH 6.5-7.5 or pH 5.0 [3] [fold] |
| --- | --- | --- | --- |
| NRPS regulator NrpR (amino acids 1-285), recombinant, untagged (receptor) | 2 | > 2 |  |
| fluorescein-labeled synthetic NRPS-inducing peptide (NIP) |  |  | > 75 |
